Source: patent publication US20170320960A1 (AbbVie / Abbott, published 2017)

T1: hMFI2 Tf-like Domain 1 (TLD1), amino acids 20-357, displayed on yeast (human, UniProt P08582 20-357)
T1 construct: also called TFLD1
T1 sequence: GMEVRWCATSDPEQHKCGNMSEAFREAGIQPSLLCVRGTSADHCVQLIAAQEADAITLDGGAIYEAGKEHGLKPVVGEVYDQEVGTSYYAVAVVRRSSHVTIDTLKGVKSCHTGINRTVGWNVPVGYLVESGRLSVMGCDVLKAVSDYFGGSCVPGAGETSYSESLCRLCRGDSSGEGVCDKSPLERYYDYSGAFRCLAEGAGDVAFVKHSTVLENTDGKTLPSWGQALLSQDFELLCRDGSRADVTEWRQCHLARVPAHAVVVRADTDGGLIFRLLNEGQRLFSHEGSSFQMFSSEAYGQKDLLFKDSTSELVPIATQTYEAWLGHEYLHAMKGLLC

T2: hMFI2 Tf-like Domain 2 (TLD2), amino acids 366-709, displayed on yeast (human, UniProt P08582 366-709)
T2 construct: also called TFLD2; transferrin-like domain 2
T2 sequence: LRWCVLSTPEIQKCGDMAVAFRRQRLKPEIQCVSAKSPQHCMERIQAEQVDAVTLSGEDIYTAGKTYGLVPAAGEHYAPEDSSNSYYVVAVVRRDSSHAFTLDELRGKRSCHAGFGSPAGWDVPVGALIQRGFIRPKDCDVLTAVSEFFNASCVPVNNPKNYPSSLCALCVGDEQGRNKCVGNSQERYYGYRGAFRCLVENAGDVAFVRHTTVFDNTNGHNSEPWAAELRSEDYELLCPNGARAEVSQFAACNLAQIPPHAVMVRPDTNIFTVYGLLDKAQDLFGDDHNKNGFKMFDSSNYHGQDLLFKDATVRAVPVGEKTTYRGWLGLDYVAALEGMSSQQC


Target: T1, hMFI2 Tf-like Domain 1 (TLD1), amino …
Experiment: flow cytometry on yeast displaying hMFI2 domains

binding result	Binder
binds	SC57.1 (antibody, V domains shown) VH: QVQLKQSGPGLVQPSQSLSITCTVSGFSLTDYGVHWVRQSPGKGLDWLGVIWSGGNTDYNAAFISRLSISKDNSKSQIFFEMNSLQDTDTAIYYCARQLHYYGPFAYWGQGTLVTVSA VL: QIVLTQSPAIMSASPGEKVTMTCSASSSVSYMHWYQQKSGTSPKRWIYDTSKLASGVPVRFSGSGSGTSYSLTISSIEADDAATYYCQQWSRTPPTFGGGTKLEIK

Target: T2, hMFI2 Tf-like Domain 2 (TLD2), amino …
Experiment: flow cytometry on yeast displaying hMFI2 domains

binding result	Binder
binds	SC57.5 (antibody, V domains shown) VH: EVQLQQSGPELVKPGASVKISCKASGYSFTDYYLHWVKQSHVKSLEWIGRINPYNGATSYNQIFKDKASLTVDKSSSTAYMDLHSLTSEDSAVYYCARGGDYDFPWYWGQGTTLTVSP VL: DIVMTQSHKFMSTSVGDRVSITCKASQDVYAAVAWYHQKPGQSPKLLIYWASTRHAGVPDRFTGSGSGTDYTLTISSVQAEDLALYYCQQHYRTPWTFGGGTKLEIK
binds	SC57.17 (antibody, V domains shown) VH: EVQLQQSGAELVKPGASVKLSCTASGFNIKDTYMHWVKQRPEQGLEWIGRIDPANVNTSDDPKFQGKATIAADTSSNTVYLQLSSLTSEDTAVYYCARDYRYDGYYYAMDYWGQGTSVTVSS VL: DIQMTQTTSSLSASLGDRVTISCSASQDINNYLNWYQQKPDGTVKLLIHYTSSLHSGVPSRFSGSGSGTDYSLTISNLEPEDIATYYCQQYSKVPWTFGGGTKLEIK
binds	SC57.9 (antibody, V domains shown) VH: QVQLQQSGPELMKPGASVKISCKATGYTFSSYWIEWVKQRPGHGLEWIGEILPGSGSTEYNEKFKGKATFTADTSSNTAYMQLSSLTSEDSDVYYCARKRYGTMDYWGQGTSVTVSS VL: QIVLTQSPAIMSASPGEKVTITCSASSSVSYMHWFQQKPGTSPKLWIYTTSNLASGVPARFSGSGSGTSYSLTISRMEAEDAATYYCQQRSSFPPTFGSGTKLEIK
binds	SC57.4 (antibody, V domains shown) VH: EIQLQQSGPEMVKPGASVKVTCKASGYSFTDFNMHWMKQSHGKSLEWIGYIDPYKGGISYNQKFKGRATLTVDKSSSTAFMHLNSLTSDDSAVYYCARDYYGSRFPYYFDYWGQGTTLTVSS VL: DVVMTQTPLSLPVSLGDQASISCRSSQSLVHSNGNTYLHWYLQKPGQSPKLLIYRVSNRFSGVPDRFSGSGSGTDFTLKISRVEAEDLGVYLCSQSTHVPLTFGAGTKLELK
binds	SC57.18 (antibody, V domains shown) VH: EIQLQQSGPEMVKPGASVKVTCKASGYSFTDFNMHWMKQSHGKSLEWIGYIDPYKGGISYNQKFKGRATLTVDKSSSTAFMHLNSLTSDDSAVYYCARDYYGSRFPYYFDYWGQGTTLTVSS VL: DVVMTQTPLSLPVSLGDQASISCRSSQSLVHSNGNTYLHWYLQKPGQSPKLLIYRVSNRFSGVPDRFSGSGSGTDFTLKISRVEAEDLGVYLCSQSTHVPLTFGAGTKLELK
binds	SC57.28 (antibody, V domains shown) VH: EIQLQQSGPEMVKPGASVKVTCKASGYSFTDFNMHWMKQSHGKSLEWIGYIDPYKGGISYNQKFKGRATLTVDKSSSTAFMHLNSLTSDDSAVYYCARDYYGSRFPYYFDYWGQGTTLTVSS VL: DVVMTQTPLSLPVSLGDQASISCRSSQSLVHSNGNTYLHWYLQKPGQSPKLLIYRVSNRFSGVPDRFSGSGSGTDFTLKISRVEAEDLGVYLCSQSTHVPLTFGAGTKLELK
binds	SC57.25 (antibody, V domains shown) VH: EIQLQQSGPEMVKPGASVKVTCKASGYSFTDFNMHWMKQSHGKSLEWIGYIDPYKGGISYNQKFKGRATLTVDKSSSTAFMHLNSLTSDDSAVYYCARDYYGSRFPYYFDYWGQGTTLTVSS VL: DVVMTQTPLSLPVSLGDQASISCRSSQSLVHSNGNTYLHWYLQKPGQSPKLLIYRVSNRFSGVPDRFSGSGSGTDFTLKISRVEAEDLGVYLCSQSTHVPLTFGAGTKLELK
binds	SC57.10 (antibody, V domains shown) VH: QVQLQQSGAELMKPGASVKISCKATGYTFSNYRIEWIKQRPGHGLEWIGEILPRGGNTNYNEKFKGKATFTADTSSNTAYMQLTSLTSEDSAVYYCARDDGYYGRFAYWGQGTLVTVSA VL: DIQMTQTTSSLSASLGDRVTISCRASQDISNYLNWYQQKPDGTVKLLIFYTSRLHSGVPSRFSGSGSGTDYSLTISNLEQEDFATYFCQQGNTLPPTFGGGTKLEIK
binds	SC57.11 (antibody, V domains shown) VH: QVQLQQSGAELMKPGASVKISCKATGYTFSNYRIEWMKQRPGHGLEWIGEILPRTGNTNYNENFKGKATFTADTSSNTAYIQLSSLTSEDSAVYYCARDDGYYGRFAYWGQGTLVTVSA VL: DIQMTQTTSSLSASLGDRVTISCRASQDISSYLNWYQQKPDGTVKLLIYYTSRLHSGVPSRFSGSGSGTDYSLTINNLEQEDIATYFCQQGNTLPPTFGGGTKLEIK

Target: T2, hMFI2 Tf-like Domain 2 (TLD2), amino …
Experiment: flow cytometry on yeast displaying hMFI2 domains
Remark: another data set of the same source

binding result	Binder
binds	hSC57.5 (antibody, human IgG1, kappa, V domains shown, also called humanized SC57.5) VH: EVQLVQSGAEVKKPGESLKISCKGSGYSFTDYYLHWVRQMPGKGLEWMGRINPYNGATSYNQIFKDQVTISADKSISTAYLQWSSLKASDTAMYYCARGGDYDFPWYWGQGTTVTVSS VL: DIQMTQSPSSLSASVGDRVTITCKASQDVYAAVAWYQQKPGKAPKLLIYWASTRHAGVPSRFSGSGSGTDFTLTISSLQPEDFATYYCQQHYRTPWTFGQGTKVEIKR
binds	hSC57.32 (antibody, human IgG1, kappa, V domains shown) VH: QVQLVQSGAEVKKPGASVKVSCKASGYTFTNYRIEWVRQAPGQGLEWMGEILPRGGNTNYNEKFKGRVTFTADTSTSTAYMELRSLRSDDTAVYYCARDDGYYGRFAYWGQGTLVTVSS VL: DIQMTQSPSSLSASVGDRVTITCRASQDISNYLNWYQQKPGKAPKLLIYYTSRLHSGVPSRFSGSGSGTDYTLTISSLQPEDFATYYCQQGNTLPPTFGGGTKVEIKR
binds	SC57.31 (antibody, V domains shown) VH: QVHLKESGPGLVAPSQSLSITCTVSGFSLTTYGVHWVRQPPGKGLEWLGVIWAGGSTKYNSAFMSRLSISKDNSKTQVLLKMNSLQTDDTAMYYCARVASHGSSSWFAYWGQGTLVTVSA VL: DIVLTQSPATLSVTPGDSVSLSCRASQSVGNSLHWYQQKSHESPRLLIKYASQSISGIPSRFSGSGSGTDFTLSINSVETEDFGMYFCQQSDSWPLTFGTGTKLELK
binds	SC57.55 (antibody, V domains shown) VH: QVQLKQSGPGLVQPSQSLSITCTVSGFSLSSYGVHWVRQSPGKGLEWLGVIWSGGNTDYNAAFISRLSISKDNSKSQVFFKMNSLQADDTAIYYCARRNNSAWFAYWGQGTLVTVSA VL: DIVLTQSPATLSVTPGDSVSLSCRASQGISNNLHWYQQKSHESPRLLIKYASQSISGIPSRFSGSGSGTDFALSINSVETEDFGMFFCQQSNSWPLTFGAGTKLELK
binds	SC57.52 (antibody, V domains shown) VH: QVQLKQSGPGLVQPSQSLSITCTVSGFSLSSYGVHWVRQSPGKGLEWLGVIWSGGNTDYNAAFISRLSISKDNSKSQVFFKMNSLQADDTAIYYCARRNNSAWFAYWGQGTLVTVSA VL: DIVLTQSPATLSVTPGDSVSLSCRASQGISNNLHWYQQKSHESPRLLIKYASQSISGIPSRFSGSGSGTDFALSINSVETEDFGMFFCQQSNSWPLTFGAGTKLELK
binds	hSC57.43 (antibody, human IgG1, kappa, V domains shown) VH: QVQLVESGGGVVQPGRSLRLSCAASGFTFGSYTMSWVRQAPGKGLEWVAYISNGGYVTYYPDTVKGRFTISRDNSKNTLYLQMNSLRAEDTAVYYCARGYDWYFDVWGQGTTVTVSS VL: DIVMTQSPDSLAVSLGERATINCRSSQSLVHSNGNTYLHWYQQKPGQPPKLLIYKVSNRFSGVPDRFSGSGSGTDFTLTISSLQAEDVAVYYCSQSTHVPLYTFGGGTKVEIKR
binds	SC57.37 (antibody, V domains shown) VH: EIQLQQSGPEMVKPGASVKVTCKASGYSFTDFNMHWMKQSHGKSLEWIGYIDPYKGGISYNQKFKGRATLTVDKSSSTAFMHLNSLTSDDSAVYYCARDYYGSRFPYYFDYWGQGTTLTVSS VL: DVVMTQTPLSLPVSLGDQASISCRSSQSLVHSNGNTYLHWYLQKPGQSPKLLIYRVSNRFSGVPDRFSGSGSGTDFTLKISRVEAEDLGVYLCSQSTHVPLTFGAGTKLELK
binds	SC57.32 (antibody, V domains shown) VH: QVQLQQSGAELMKPGASVKISCKATGYTFSNYRIEWIKQRPGHGLEWIGEILPRGGNTNYNEKFKGKATFTADTSSNTAYMQLTSLTSEDSAVYYCARDDGYYGRFAYWGQGTLVTVSA VL: DIQMTQTTSSLSASLGDRVTISCRASQDISNYLNWYQQKPDGTVKLLIFYTSRLHSGVPSRFSGSGSGTDYSLTISNLEQEDFATYFCQQGNTLPPTFGGGTKLEIK
